Target: T1, human ciliary neurotrophic factor receptor alpha (hCNTFRα) (human, UniProt P26992 23-342)
T1 construct: human ciliary neurotrophic factor receptor alpha (hCNTFRα), bought protein; also called hCNTF receptor; source: bought: Sino Biologicals Inc
T1 sequence (looked up): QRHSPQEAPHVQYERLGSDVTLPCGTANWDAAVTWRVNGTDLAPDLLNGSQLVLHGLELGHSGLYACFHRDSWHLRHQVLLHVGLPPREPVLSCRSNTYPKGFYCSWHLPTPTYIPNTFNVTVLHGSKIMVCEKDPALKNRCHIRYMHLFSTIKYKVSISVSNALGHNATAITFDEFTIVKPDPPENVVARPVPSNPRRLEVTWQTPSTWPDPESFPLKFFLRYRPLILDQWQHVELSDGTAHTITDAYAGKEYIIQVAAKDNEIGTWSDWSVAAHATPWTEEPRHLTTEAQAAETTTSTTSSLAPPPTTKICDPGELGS
Assay: ELISA; 1 μg hCNTFRα in PBS immobilised on Nunc MaxiSorp 96-well plate; blocked with 2% BSA in TBS-T; biotinylated CNTF 0.2 – 3.0 μg added, room temperature 2 h; detected with HRP-conjugated streptavidin and TMB, OD 450 nm
Settings: both partners purified

B1: recombinant 6-His-hCNTF (human ciliary neurotrophic factor), biotinylated (ligand, UniProt P26441 1-200, looked up)
chain: MAFTEHSPLTPHRRDLCSRSIWLARKIRSDLTALTESYVKHQGLNKNINLDSADGMPVASTDQWSELTEAERLQENLQAYRTFHVLLARLLEDQQVHFTPTEGDFHQAIHTLLLQVAAFAYQIEELMILLEYKIPRNEADGMPINVGDGGLFEKKLWGLKVLQELSQWTVRSIHDLRFISSHQTGIPARGSHYIANNKKM
modifications: biotin (reacted with a 20-fold molar excess of NHS-PEG4-biotin; sites not stated)
notes: Rhinovirus 3C protease cleavage site between the tag and the insert; No cleavage of the 6-His tag is described; also called biotinylated hCNTF; biotinylated CNTF; source: E. coli Rosetta 2(DE3)pLysS, TBONEX 25°C, purified (Ni-IDA, SEC)
EC50: 36 nM
